In the RNAGym collection of RNA variant scans (doi:10.7554/elife.90254):

B1: OR4K15 (parent)
chain: GUUAACGGUCAUAGGCCAUGGAAACUAGGAGCACCAUUUCGCUGCCAGUGAAGAAAUGAACAAAGAAAAUCUGGGCCAGGCAGGCAUCAAAAGAAAUAGUCUUGCGCUCAACCAGAAAGUCUGUAAUCAUUUUAAGGGUA

Variants of: B1
Assay: self-cleavage, relative activity (ratio to wild type); higher = more cleavage; in vitro, sequencing; the parent is a self-cleaving ribozyme

Q: For C45U U70C, which self-cleavage is on record?
A: 0.82

Q: For A47U C77A, which self-cleavage is on record?
A: 0.69

Q: With U49C A92G as the variant, how does the self-cleavage read?
A: 1.47

Q: Which self-cleavage does the source give for U49C A92U here?
A: 1.42

Q: With U49A U127G as the variant, how does the self-cleavage read?
A: 1.97

Q: With U49A U127C as the variant, how does the self-cleavage read?
A: 0.38

Q: Which self-cleavage does the source give for A47U A66G here?
A: 0.99

Q: For U49A U70A, which self-cleavage is on record?
A: 0.66

Q: Which self-cleavage does the source give for A47G G104A here?
A: 0.05

Q: For A47G A56G, which self-cleavage is on record?
A: 1.03

Q: With G44A A91G as the variant, how does the self-cleavage read?
A: 0.42

Q: For A47G A59U, which self-cleavage is on record?
A: 1.56

Q: With U49A G138U as the variant, how does the self-cleavage read?
A: 1.69

Q: With G48U A118G as the variant, how does the self-cleavage read?
A: 1.08

Q: Which self-cleavage does the source give for C46U A55G here?
A: 1.14

Q: Which self-cleavage does the source give for U43G A116G here?
A: 0.96

Q: For C46U G84A, which self-cleavage is on record?
A: 1.72

Q: For G44U G137U, which self-cleavage is on record?
A: 1.87

Q: For C45U A95G, which self-cleavage is on record?
A: 1.99

Q: Which self-cleavage does the source give for C45G A90G here?
A: 1.2

Q: Which self-cleavage does the source give for U49A C121A here?
A: 0.95

Q: For G44U A63G, which self-cleavage is on record?
A: 1.46

Q: For A47U U57C, which self-cleavage is on record?
A: 0.75

Q: With C45G U100C as the variant, how does the self-cleavage read?
A: 1.37

Q: Which self-cleavage does the source give for G48A U127A here?
A: 2.28

Q: For G48U A110G, which self-cleavage is on record?
A: 0.2

Q: Which self-cleavage does the source give for G48A A98U here?
A: 2.56

Q: Which self-cleavage does the source give for C46U G74A here?
A: 0.32

Q: With C45A A116G as the variant, how does the self-cleavage read?
A: 1.32

Q: With A47U A114G as the variant, how does the self-cleavage read?
A: 0.21

Q: With C46U U103C as the variant, how does the self-cleavage read?
A: 1.41

Q: With A47G A63G as the variant, how does the self-cleavage read?
A: 0.44

Q: For A47U A118C, which self-cleavage is on record?
A: 0.48

Q: With U49A U131G as the variant, how does the self-cleavage read?
A: 1.06

Q: Which self-cleavage does the source give for A47G U133C here?
A: 1.99

Q: Which self-cleavage does the source give for G44A U133C here?
A: 1.78

Q: Which self-cleavage does the source give for C45A G48A here?
A: 1.5

Q: Which self-cleavage does the source give for C46U A47G here?
A: 0.79

Q: With A47U G75A as the variant, how does the self-cleavage read?
A: 0.14

Q: Which self-cleavage does the source give for A47C A111U here?
A: 0.07

Q: With A47U C105U as the variant, how does the self-cleavage read?
A: 0.14

Q: For U49C A125G, which self-cleavage is on record?
A: 0.7

Q: With U43C U100G as the variant, how does the self-cleavage read?
A: 1.75

Q: Which self-cleavage does the source give for U43C U100A here?
A: 0.67

Q: With A47U A64G as the variant, how does the self-cleavage read?
A: 0.61

Q: With U49A A134G as the variant, how does the self-cleavage read?
A: 0.74

Q: For A47G A111U, which self-cleavage is on record?
A: 0.12

Q: With A47G U87A as the variant, how does the self-cleavage read?
A: 1.63

Q: With A47G U70A as the variant, how does the self-cleavage read?
A: 0.83

Q: For G44A A59G, which self-cleavage is on record?
A: 1.56

Q: With U49C A94U as the variant, how does the self-cleavage read?
A: 1.36

Q: Which self-cleavage does the source give for A47C A96G here?
A: 1.82

Q: With A47G A55U as the variant, how does the self-cleavage read?
A: 0.19

Q: Which self-cleavage does the source give for A47G A55G here?
A: 0.59

Q: With A47U G138A as the variant, how does the self-cleavage read?
A: 1.61

Q: With A47G A94C as the variant, how does the self-cleavage read?
A: 1.1

Q: For A47U A111U, which self-cleavage is on record?
A: 0.06

Q: With C46U A98G as the variant, how does the self-cleavage read?
A: 0.74

Q: For U43C U108G, which self-cleavage is on record?
A: 0.02

Q: Which self-cleavage does the source give for U43C U72C here?
A: 0.07

Q: With U43C U72A as the variant, how does the self-cleavage read?
A: 0.4

Q: With G48A U72A as the variant, how does the self-cleavage read?
A: 0.2

Q: With U49C A66U as the variant, how does the self-cleavage read?
A: 1.39

Q: With C46A A110U as the variant, how does the self-cleavage read?
A: 1.53

Q: With G44A A51G as the variant, how does the self-cleavage read?
A: 2.19

Q: Which self-cleavage does the source give for A47U U132G here?
A: 0.61

Q: With U43G A67G as the variant, how does the self-cleavage read?
A: 1.89

Q: Which self-cleavage does the source give for U43G A67U here?
A: 2.63

Q: For A47C A110C, which self-cleavage is on record?
A: 0.46

Q: Which self-cleavage does the source give for G48A A56G here?
A: 1.34

Q: With U43C G99C as the variant, how does the self-cleavage read?
A: 0.26

Q: With A47G A64U as the variant, how does the self-cleavage read?
A: 1.26

Q: With U49C A129U as the variant, how does the self-cleavage read?
A: 0.92

Q: Which self-cleavage does the source give for A47C A92G here?
A: 0.95

Q: For A47U A92G, which self-cleavage is on record?
A: 0.84

Q: With U49A A90U as the variant, how does the self-cleavage read?
A: 1.26

Q: Which self-cleavage does the source give for C45U U127C here?
A: 0.56

Q: Which self-cleavage does the source give for G44A A89U here?
A: 1.59

Q: With G44A A89G as the variant, how does the self-cleavage read?
A: 1.14

Q: Which self-cleavage does the source give for G44A U57C here?
A: 1.84

Q: With C45U A78U as the variant, how does the self-cleavage read?
A: 0.33

Q: With C46U G138U as the variant, how does the self-cleavage read?
A: 1.93

Q: For A47C A64U, which self-cleavage is on record?
A: 1.56

Q: Which self-cleavage does the source give for G44A A78G here?
A: 0.24

Q: With A47U A69U as the variant, how does the self-cleavage read?
A: 1.22

Q: With U43G U103A as the variant, how does the self-cleavage read?
A: 1.15

Q: With U49C A54G as the variant, how does the self-cleavage read?
A: 1.19

Q: For U49C A54U, which self-cleavage is on record?
A: 0.94

Q: With G48C U131C as the variant, how does the self-cleavage read?
A: 0.69

Q: For C46U U120C, which self-cleavage is on record?
A: 0.15

Q: For U49C A55G, which self-cleavage is on record?
A: 1.22

Q: For A47G C81U, which self-cleavage is on record?
A: 0.25

Q: Which self-cleavage does the source give for G44A G74A here?
A: 0.17

Q: For A47G A62U, which self-cleavage is on record?
A: 1.22

Q: Which self-cleavage does the source give for A47G G75U here?
A: 0.16

Q: With U49A A66C as the variant, how does the self-cleavage read?
A: 1.48

Q: Which self-cleavage does the source give for U49A A66U here?
A: 1.29

Q: With U43G A140G as the variant, how does the self-cleavage read?
A: 2.62

Q: With U43G A69G as the variant, how does the self-cleavage read?
A: 2.1

Q: For C46U U131C, which self-cleavage is on record?
A: 2.02

Q: With A47G A90G as the variant, how does the self-cleavage read?
A: 0.56

Q: With A47G A90C as the variant, how does the self-cleavage read?
A: 1.68

Q: Which self-cleavage does the source give for A47U G115A here?
A: 0.15

Q: For A47G G106A, which self-cleavage is on record?
A: 0

Q: With A47C A60G as the variant, how does the self-cleavage read?
A: 1.63

Q: For U49A A98U, which self-cleavage is on record?
A: 0.26

Q: Which self-cleavage does the source give for U49A A98G here?
A: 0.44

Q: Which self-cleavage does the source give for A47G A95G here?
A: 1.71

Q: With C46U A96G as the variant, how does the self-cleavage read?
A: 2.13

Q: For U49A A59G, which self-cleavage is on record?
A: 1.44

Q: With G44A G65A as the variant, how does the self-cleavage read?
A: 0

Q: Which self-cleavage does the source give for A47C A55G here?
A: 1.43

Q: With G44U U70A as the variant, how does the self-cleavage read?
A: 0

Q: For C46U A82U, which self-cleavage is on record?
A: 0.14

Q: With C46U A82C as the variant, how does the self-cleavage read?
A: 0.27

Q: For C46U A82G, which self-cleavage is on record?
A: 0.94

Q: With U49C A110G as the variant, how does the self-cleavage read?
A: 0.12

Q: Which self-cleavage does the source give for U49C A86C here?
A: 0.78

Q: Which self-cleavage does the source give for A47U A126G here?
A: 0.77

Q: Which self-cleavage does the source give for U49C A116G here?
A: 0.82

Q: With A47U G50A as the variant, how does the self-cleavage read?
A: 0.26

Q: With C46A U120C as the variant, how does the self-cleavage read?
A: 0.87

Q: For A47U A140G, which self-cleavage is on record?
A: 0.91

Q: With C45A U131C as the variant, how does the self-cleavage read?
A: 0.26

Q: For U43G A126G, which self-cleavage is on record?
A: 0.92

Q: For C45U A82G, which self-cleavage is on record?
A: 0.27

Q: For A47G U108A, which self-cleavage is on record?
A: 0.01

Q: For G44A U132A, which self-cleavage is on record?
A: 1.35

Q: For C45A A117G, which self-cleavage is on record?
A: 2.96

Q: For U49A U130C, which self-cleavage is on record?
A: 1.53

Q: With A47U A98G as the variant, how does the self-cleavage read?
A: 0.16

Q: Which self-cleavage does the source give for A47U A98C here?
A: 1.44

Q: With G48A A69G as the variant, how does the self-cleavage read?
A: 1.49

Q: For A47U G84U, which self-cleavage is on record?
A: 0.25

Q: For A47U G84A, which self-cleavage is on record?
A: 1.13

Q: With G44A A68G as the variant, how does the self-cleavage read?
A: 1.81

Q: With A47U U102C as the variant, how does the self-cleavage read?
A: 1.92

Q: Which self-cleavage does the source give for C46U U132C here?
A: 1.97

Q: For U43G A114U, which self-cleavage is on record?
A: 0.1

Q: Which self-cleavage does the source give for U43G A114G here?
A: 0.27

Q: Which self-cleavage does the source give for U49A A94G here?
A: 1.11

Q: With G48U A94G as the variant, how does the self-cleavage read?
A: 0.54

Q: With U49A C105U as the variant, how does the self-cleavage read?
A: 0.15

Q: For U43C U120A, which self-cleavage is on record?
A: 2.06

Q: With U49C A114U as the variant, how does the self-cleavage read?
A: 0.12

Q: With A47G A92C as the variant, how does the self-cleavage read?
A: 0.42

Q: For A47G A92U, which self-cleavage is on record?
A: 1.18

Q: Which self-cleavage does the source give for A47C A125G here?
A: 0.42

Q: For C46U U72A, which self-cleavage is on record?
A: 0.14

Q: With G48A U102C as the variant, how does the self-cleavage read?
A: 1.99

Q: With C45A A51G as the variant, how does the self-cleavage read?
A: 1.35

Q: Which self-cleavage does the source give for G48A U70C here?
A: 0.31

Q: For G44A A94G, which self-cleavage is on record?
A: 1.48

Q: Which self-cleavage does the source give for U49A A125G here?
A: 0.82

Q: For U49C A68G, which self-cleavage is on record?
A: 1.55

Q: With U49A G137A as the variant, how does the self-cleavage read?
A: 1.92

Q: For U49C A98G, which self-cleavage is on record?
A: 0.48

Q: Which self-cleavage does the source give for U49C A98U here?
A: 2.55

Q: Which self-cleavage does the source give for U49C A98C here?
A: 1.84

Q: With G44A U130C as the variant, how does the self-cleavage read?
A: 0.64

Q: Which self-cleavage does the source give for C45U A96U here?
A: 1.55

Q: For A47C U131C, which self-cleavage is on record?
A: 0.89

Q: For U49A A52G, which self-cleavage is on record?
A: 0.96

Q: For U49A U120C, which self-cleavage is on record?
A: 0.84

Q: Which self-cleavage does the source give for U49A U100C here?
A: 2.15

Q: With G48A A95G as the variant, how does the self-cleavage read?
A: 1.29

Q: For U49C A90C, which self-cleavage is on record?
A: 0.97
